Measurements from US20090148447A1 (TRUBION PHARMACEUTICALS, published 2009).

T1: CD20 (UniProt P11836 1-297, limits assumed)
T1 construct: whole, on cells; also called CD20 on Wil2-S cells
T1 sequence (looked up): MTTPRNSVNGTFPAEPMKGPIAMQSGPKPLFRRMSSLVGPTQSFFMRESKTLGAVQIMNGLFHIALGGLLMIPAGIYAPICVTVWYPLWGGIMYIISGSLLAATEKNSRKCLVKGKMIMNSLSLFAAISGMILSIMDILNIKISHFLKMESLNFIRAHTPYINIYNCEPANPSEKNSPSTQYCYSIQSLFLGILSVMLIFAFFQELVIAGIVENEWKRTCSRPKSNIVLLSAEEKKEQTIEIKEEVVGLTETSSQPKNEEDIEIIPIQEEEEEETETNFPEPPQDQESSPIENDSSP

B1: 2Lm20-4HL12 (an HL anti-CD20 SMIP with a 12-amino-acid gly4ser linker) (Fc fusion)
chain: QVQLVQSGAESKKPGASVKVSCKASGYTFTSYNMHWVRQAPGQGLEWMGAIYPGNGDTSYNQKFKGRVTMTRDTSTSTVYMELSSLRSEDTAVYYCARSYYSNSYWYFDLWGRGTLVTVSSGGGGSGGGGSASEIVLTQSPATLSLSPGERATLSCRASSSVSYIVWYQQKPGQAPRLLIYAPSNLASGIPARFSGSGSGTDFTLTISSLEPEDFAVYYCQQWSFNPPTFGQGTKVEIK
notes: also called DNE078; not shown: The hinge and CH2CH3 of this SMIP are not specified
B2: 2Lm20-4HL17 (an HL anti-CD20 SMIP with a 17-amino-acid gly4ser linker) (Fc fusion)
chain: QVQLVQSGAESKKPGASVKVSCKASGYTFTSYNMHWVRQAPGQGLEWMGAIYPGNGDTSYNQKFKGRVTMTRDTSTSTVYMELSSLRSEDTAVYYCARSYYSNSYWYFDLWGRGTLVTVSSGGGGSGGGGSGGGGSASEIVLTQSPATLSLSPGERATLSCRASSSVSYIVWYQQKPGQAPRLLIYAPSNLASGIPARFSGSGSGTDFTLTISSLEPEDFAVYYCQQWSFNPPTFGQGTKVEIK
notes: also called DNE079; not shown: The hinge and CH2CH3 of this SMIP are not specified

Tests used:
[1] = target: low-affinity CD16 (CD16lo); test: flow cytometry, CD16lo bound to sample on Ramos cells, goat anti-mouse-PE; sample 2.67 ug/ml
[2] = target: low-affinity CD16 (CD16lo); test: flow cytometry, CD16lo bound to sample on Ramos cells, goat anti-mouse-PE; sample 24 ug/ml
[3] = target: low-affinity CD16 (CD16lo); test: flow cytometry, CD16lo bound to sample on Ramos cells, goat anti-mouse-PE; sample 0.1 ug/ml
[4] = target: low-affinity CD16 (CD16lo); test: flow cytometry, CD16lo bound to sample on Ramos cells, goat anti-mouse-PE; sample 8 ug/ml
[5] = target: low-affinity CD16 (CD16lo); test: flow cytometry, CD16lo bound to sample on Ramos cells, goat anti-mouse-PE; sample 0.033 ug/ml
[6] = target: low-affinity CD16 (CD16lo); test: flow cytometry, CD16lo bound to sample on Ramos cells, goat anti-mouse-PE; sample 0.3 ug/ml
[7] = target: low-affinity CD16 (CD16lo); test: flow cytometry, CD16lo bound to sample on Ramos cells, goat anti-mouse-PE; sample 0.89 ug/ml
[8] = target: low-affinity CD16 (CD16lo); test: flow cytometry, CD16lo bound to sample on Ramos cells, goat anti-mouse-PE; sample 0.011 ug/ml
CD20 = target: T1, CD20; test: flow cytometry on Wil2-S B-cells, PE goat anti-human IgG
Protocol: For the Wil2-S B-cell binding study, 100 ug/ml of PIMS was used. […] Binding was detected using a goat anti-human IgG (gamma specific) conjugated to phycoerythrin (PE) (Jackson Immunoresearch # 109-116-098) at 1:100 dilution in FACS buffer. Results were analyzed by one-color flow cytometry on a FACsCalibur using CellQuest software. In addition to assessing the binding of anti-CD20 PIMS to WIL2-S cells, the binding of anti-CD20 SMIPs to Wil2-S cells expressing CD20 on their surface was also assessed.

low-affinity CD16 (CD16lo), sequence (P08637 17-208): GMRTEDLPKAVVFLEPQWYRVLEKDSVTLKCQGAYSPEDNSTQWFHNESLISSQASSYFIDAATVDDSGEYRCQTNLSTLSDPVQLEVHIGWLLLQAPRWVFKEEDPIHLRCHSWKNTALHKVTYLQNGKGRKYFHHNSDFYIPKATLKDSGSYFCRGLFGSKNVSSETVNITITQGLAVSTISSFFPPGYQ

Molecule	Geo MFI [1]	Geo MFI [2]	Geo MFI [3]	Geo MFI [4]	Geo MFI [5]	Geo MFI [6]	Geo MFI [7]	Geo MFI [8]	binding result (CD20)
TRU-016 (an anti-CD37 SMIP) (Fc fusion)	229	158	57.5	228	21.8	143	214	7.41	–
B1	–	–	–	–	–	–	–	–	binds
B2	–	–	–	–	–	–	–	–	binds
